Results on three molecules are retold here after patent publication US20260070974A1 (NONA BIOSCIENCES SUZHOU, published 2026).

For assay [1], the target named is T1, mouse Siglec-15-his protein (Acrobiosystems, Cat #: SG5-M52H7) (mouse).
T1 construct: Bought protein; also called mouse Siglec-15 protein
Put plainly: ELISA, coated mouse Siglec-15-his. The procedure: (§1) […] mouse Siglec-15-his protein (Acrobiosystems, Cat #: SG5-M52H7) dissolved in PBS was added to an ELISA plate at 100 μL/well for coating and the plate was incubated overnight at 4° C. The ELISA plate was then blocked with PBST (PBS+0.05% Tween 20) containing 2% BSA at 200 μL/well and incubated at 37° C. for 1 h. The ELISA plate was washed 4 times with PBST. The anti-Siglec-15 antibody diluted in a gradient (5-fold dilution, starting concentration: 6.67 nM) was added to the ELISA plate at 100 μL/well and the plate was incubated at 37° C. for 1 h. The ELISA plate was washed 4 times with PBST. The goat anti-human IgG (H+L)-HRP (1:5000, Jackson, Cat: 109-035-088) was added at 100 μL/well and the plate was incubated at 37° C. for 1 h. The ELISA plate was washed 4 times with PBST. The TMB substrate (Biopanda, Cat: TMB-S-003) was added at 100 μL/well, and the plate was incubated at room temperature for 5 min, and then the stop buffer (Solarbio, Cat #: C1058) was added at 100 μL/well to stop the reaction.

The target in assay [2] is T2, human Siglec-15 ECD-his protein (Acrobiosystems, Cat #: SG5-H52H3) (human, UniProt Q6ZMC9 20-263).
T2 construct: Bought protein; only its extracellular domain stood in the assay; also called human Siglec-15 protein; recombinant human Siglec-15 protein; not shown: his tag
T2 sequence: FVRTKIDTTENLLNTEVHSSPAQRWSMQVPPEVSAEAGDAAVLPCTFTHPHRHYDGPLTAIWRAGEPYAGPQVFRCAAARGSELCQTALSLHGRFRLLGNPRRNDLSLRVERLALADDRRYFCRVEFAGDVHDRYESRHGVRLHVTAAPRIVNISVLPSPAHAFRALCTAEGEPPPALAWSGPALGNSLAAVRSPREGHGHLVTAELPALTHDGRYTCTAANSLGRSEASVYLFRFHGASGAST
Nature of the assay: ELISA, coated human Siglec-15 ECD-his. The procedure: as §1, with “human Siglec-15 ECD-his” for “mouse Siglec-15-his”, “SG5-H52H3)” for “SG5-M52H7)”, “Cat #:” for “Cat:”
In general terms: An ELISA detects its analyte on a solid surface through an enzyme-linked reagent.

For assay [3], the target named is T3, cynomolgus monkey Siglec-15-his protein (Acrobiosystems, Cat #: SG5-C52H6) (cynomolgus monkey, UniProt Q6ZMC9 20-263 (human entry)).
T3 construct: Bought protein; also called cynomolgus monkey Siglec-15 protein; not shown: his tag
T3 chain: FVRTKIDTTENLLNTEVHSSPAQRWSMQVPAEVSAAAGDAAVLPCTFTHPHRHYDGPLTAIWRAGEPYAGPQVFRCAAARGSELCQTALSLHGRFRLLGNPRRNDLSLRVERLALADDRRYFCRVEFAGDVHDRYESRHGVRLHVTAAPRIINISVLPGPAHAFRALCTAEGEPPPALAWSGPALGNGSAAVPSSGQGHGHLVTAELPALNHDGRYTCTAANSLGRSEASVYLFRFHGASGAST
Nature of the assay: ELISA, coated cynomolgus monkey Siglec-15-his. The method, then:
[…] cynomolgus monkey Siglec-15-his protein (Acrobiosystems, Cat #: SG5-C52H6) dissolved in PBS was added to an ELISA plate at 100 μL/well for coating and the plate was incubated overnight at 4° C. The ELISA plate was then blocked with PBST (PBS+0.05% Tween 20) containing 2% BSA at 200 μL/well and incubated at 37° C. for 1 h. The ELISA plate was washed 4 times with PBST. The anti-Siglec-15 antibody diluted in a gradient (5-fold dilution, starting concentration: 6.67 nM) was added to the ELISA plate at 100 µL/well and the plate was incubated at 37° C. for 1 h. The ELISA plate was washed 4 times with PBST. The goat anti-human IgG (H+L)-HRP (1:5000, Jackson, Cat #: 109-035-088) was added at 100 μL/well and the plate was incubated at 37° C. for 1 h. The ELISA plate was washed 4 times with PBST. The TMB substrate (Biopanda, Cat #: TMB-S-003) was added at 100 μL/well, and the plate was incubated at room temperature for 5 min, and then the stop buffer (Solarbio, Cat #: C1058) was added at 100 μL/well to stop the reaction.

For assay [4], the target named is T4, human Siglec-15 on CHO-K1/human Siglec-15 cells (KYinno, Beijing) (human, UniProt Q6ZMC9 20-328).
T4 sequence: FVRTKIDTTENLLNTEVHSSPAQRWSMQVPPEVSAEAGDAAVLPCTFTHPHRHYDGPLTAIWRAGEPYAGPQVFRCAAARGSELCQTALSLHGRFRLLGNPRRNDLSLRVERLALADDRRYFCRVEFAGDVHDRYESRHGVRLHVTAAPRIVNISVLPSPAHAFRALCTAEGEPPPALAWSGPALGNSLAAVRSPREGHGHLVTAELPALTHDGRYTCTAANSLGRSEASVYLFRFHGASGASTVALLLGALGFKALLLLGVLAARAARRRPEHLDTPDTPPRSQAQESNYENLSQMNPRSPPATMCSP
Nature of the assay: flow cytometry on CHO-K1/human Siglec-15 cells. The method, then:
CHO-K1/human Siglec-15 cells (KYinno, Beijing) were adjusted to a density of 1×10⁶/mL with PBS, and the cell suspension was added to a 96-well V-bottom plate at 100 μL/well. The 96-well V-bottom plate was centrifuged at 1000 rpm for 5 min and washed once with PBS+2% FBS. The cells were resuspended in […] of antibody diluted in a gradient (5-fold dilution, starting concentration: 500 nM) and incubated at 4° C. for 1 h, and PR300066 and hIgG1 were used as positive control and negative control, respectively. After 1 h, the cells were washed twice with PBS+2% FBS. The cells were incubated with 100 μL of Alexa Fluor 488 goat anti-human IgG (Jackson, Cat #: 109-545-098) at 4° C. for 1 h in the dark and then washed twice with PBS+2% FBS. The cells were then resuspended in 200 μL of PBS+2% FBS. The fluorescence intensity of the cells was analyzed using a BD FACSCanto™ II flow cytometer.

In assay [5] the target is T2, human Siglec-15 ECD-his protein …. Put plainly: BLI (Octet RED96), antibody on AHC sensor, Siglec-15 ECD-his as analyte. The method, then:
Recombinant Human Siglec-15 Protein Affinity was determined using an Octet RED96 instrument (ForteBio) and an anti-human IgG Fc capture sensor (AHC biosensor, ForteBio, Cat #: 18-5060) according to the detailed procedures and methods provided by the manufacturer. Specifically, candidate antibodies were each diluted to a final concentration of 6 µg/mL and directly immobilized on AHC biosensors for kinetic measurements. The antigenic protein Siglec-15 ECD-his protein (Acrobiosystems, Cat #: SG5-H52H3) was diluted with 10× Kinetics buffer to 3 concentrations of 60 nM, 30 nM, and 15 nM separately and injected as the analyte for 120 s with a dissociation time of 400 s and then subjected to regeneration with 10 mM glycine HCl (pH 1.5) for 15 s. The association rate (kon) and dissociation rate (kdis) were calculated using a simple one-to-one Languir binding model (Octet Red96 data analysis software). The equilibrium dissociation constant (kD) was calculated as the ratio of kdis/kon.

B1: PR300670 (antibody, human IgG1, kappa, V domains shown)
VH: QVQLVESGGGVVQPGRSLRLSCVASGFTFSTYGIHWVRQAPGKGLDWVSVIWYDGSHKYYADSVQDRFTISRDNSKNTLYLQMNSLRAEDTAVYYCAREGMITMVRGVIIDYQYHGMDVWGQGTTVTVSS
VL: DIQMTQSPSTLSASVGDRVTITCRASQSIGRRLAWYQQKPGKAPKLLIYKASSLESGVPSRFSGSGSGTEFTLTISSPQPDDFATYYCQQYHSYSYTFGQGTKLEIKR
For orientation: EC50 means the concentration needed to bring the measured effect to its halfway point. One may read the Kd as a measure of binding affinity in units of concentration. The term koff denotes a measure of how fast the partners let go of each other. In general, kon refers to a measure of how fast the partners come together. In turn, B1 yielded an EC50 in assay [1] of 0.079 nM. In assay [2], this molecule gave an EC50 of 0.018 nM. It took 0.025 nM to reach a half-maximal effect in assay [3] (EC50). Moreover, in assay [4], the midpoint of the response, the EC50, lay at 1.49 nM and the “Maximum (MFI)” value came to 16600 MFI. In assay [5], binding was characterised by a dissociation constant (Kd) of 0.0858 nM, the off-rate constant (koff) stood at 3.09e-05 s⁻¹ and the kon was determined as 361000 M⁻¹ s⁻¹.

B2: PR300526 (antibody, human IgG1, kappa, V domains shown)
VH: QVQLVQSGAEVKKPGASVKVSCKASGYTFTDYYMHWVRQAPGQGLEWMGWINPNSDGTNYAQRFQGRVTMTRDTSISTAYMELSRLRSDDTAVYYCARGRLLRFFDWLDVMDAWGQGTSVTVSS
VL: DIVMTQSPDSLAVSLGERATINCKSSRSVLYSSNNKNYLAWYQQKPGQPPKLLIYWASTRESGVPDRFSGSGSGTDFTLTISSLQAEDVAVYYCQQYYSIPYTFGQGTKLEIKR
Regarding B2, the EC50 amounted to 0.104 nM in assay [1], 0.02 nM in assay [2] and 0.071 nM in assay [3].

B3: PR300659 (antibody, human IgG1, kappa, V domains shown)
VH: QVQLVESGGGVVQPGRSLRLSCAASGFIFSSYDIYWVRQAPGKGLEWVAVIWHDGSNKYYADSVKGRFTISRDNSKNTVYLQMNSLRAEDTAVYYCARDTHSYGSRIYYDYNYGMDVWGQGTTVTVSS
VL: DIQMTQSPSSLSASVGDRVSITCRASQSISSYLNWYQQKPGKAPKLLIYAASSLQSGVPSRFSGSGSGADFTLTISSLQPEDFATYYCQQTYSPPFTFGPGTKVDIKR
Take B3: the midpoint of the response in assay [1], the EC50, lay at 0.013 nM. In assay [2], this molecule displayed an EC50 of 0.01 nM. Further, in assay [3], the concentration giving a half-maximal response (EC50) is around 0.011 nM. For the same molecule, in assay [4], the EC50 was determined as 3.45 nM and the “Maximum (MFI)” value came out at 24000 MFI. Further, in assay [5], the Kd was 0.00305 nM, the koff stood at 3.25e-06 s⁻¹ and the kon stood at 1.07e+06 M⁻¹ s⁻¹.
